Experiments:
AncSZ = experiment: phosphorylation enrichment, bacterial display (enrichment ratio); higher = better substrate or ligand; peptides without Tyr show the background
EPHB1 = EPHB1 (UniProt P54762); experiment: as above
EPHB2 = EPHB2 (UniProt P29323); experiment: as above
FGFR1 = FGFR1 (UniProt P11362); experiment: as above
FGFR3 = FGFR3 (UniProt P22607); experiment: as above
Fer (mouse) = experiment: as above
Fes = Fes (UniProt P07332); experiment: as above
Fyn = Fyn (UniProt P06241); experiment: as above
Fyn, sequence (P06241 whole entry, looked up): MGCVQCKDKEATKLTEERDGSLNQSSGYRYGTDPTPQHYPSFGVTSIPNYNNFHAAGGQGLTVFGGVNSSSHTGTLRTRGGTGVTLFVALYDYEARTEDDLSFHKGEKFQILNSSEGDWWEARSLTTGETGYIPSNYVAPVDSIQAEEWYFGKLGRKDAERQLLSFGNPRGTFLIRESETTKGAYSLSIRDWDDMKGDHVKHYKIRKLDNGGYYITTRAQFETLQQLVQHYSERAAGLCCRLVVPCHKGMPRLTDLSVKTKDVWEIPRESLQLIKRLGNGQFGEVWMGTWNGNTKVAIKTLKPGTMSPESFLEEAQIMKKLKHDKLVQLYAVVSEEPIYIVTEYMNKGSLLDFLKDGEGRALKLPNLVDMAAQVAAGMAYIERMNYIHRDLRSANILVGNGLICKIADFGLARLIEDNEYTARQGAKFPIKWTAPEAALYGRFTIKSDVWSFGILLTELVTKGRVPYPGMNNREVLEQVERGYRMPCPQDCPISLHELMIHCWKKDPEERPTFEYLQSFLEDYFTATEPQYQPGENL

Hck = Hck (UniProt P08631); experiment: as above
Hck, sequence (P08631 whole entry, looked up): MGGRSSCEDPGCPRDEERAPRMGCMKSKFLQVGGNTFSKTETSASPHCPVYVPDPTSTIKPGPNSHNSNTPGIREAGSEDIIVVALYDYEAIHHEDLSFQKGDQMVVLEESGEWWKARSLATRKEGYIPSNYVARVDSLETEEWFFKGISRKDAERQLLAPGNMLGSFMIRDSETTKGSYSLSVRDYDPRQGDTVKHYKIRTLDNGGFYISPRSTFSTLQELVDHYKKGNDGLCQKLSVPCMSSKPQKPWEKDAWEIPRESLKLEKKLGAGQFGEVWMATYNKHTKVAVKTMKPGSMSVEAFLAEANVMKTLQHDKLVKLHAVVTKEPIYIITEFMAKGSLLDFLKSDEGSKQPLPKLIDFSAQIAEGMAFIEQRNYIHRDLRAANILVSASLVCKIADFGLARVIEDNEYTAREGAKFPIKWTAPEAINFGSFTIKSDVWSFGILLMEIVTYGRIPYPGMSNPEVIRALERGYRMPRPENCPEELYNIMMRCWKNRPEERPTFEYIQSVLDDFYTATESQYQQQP

Jak2 = Jak2 (UniProt O60674); experiment: as above
Jak2, sequence (O60674 whole entry, looked up): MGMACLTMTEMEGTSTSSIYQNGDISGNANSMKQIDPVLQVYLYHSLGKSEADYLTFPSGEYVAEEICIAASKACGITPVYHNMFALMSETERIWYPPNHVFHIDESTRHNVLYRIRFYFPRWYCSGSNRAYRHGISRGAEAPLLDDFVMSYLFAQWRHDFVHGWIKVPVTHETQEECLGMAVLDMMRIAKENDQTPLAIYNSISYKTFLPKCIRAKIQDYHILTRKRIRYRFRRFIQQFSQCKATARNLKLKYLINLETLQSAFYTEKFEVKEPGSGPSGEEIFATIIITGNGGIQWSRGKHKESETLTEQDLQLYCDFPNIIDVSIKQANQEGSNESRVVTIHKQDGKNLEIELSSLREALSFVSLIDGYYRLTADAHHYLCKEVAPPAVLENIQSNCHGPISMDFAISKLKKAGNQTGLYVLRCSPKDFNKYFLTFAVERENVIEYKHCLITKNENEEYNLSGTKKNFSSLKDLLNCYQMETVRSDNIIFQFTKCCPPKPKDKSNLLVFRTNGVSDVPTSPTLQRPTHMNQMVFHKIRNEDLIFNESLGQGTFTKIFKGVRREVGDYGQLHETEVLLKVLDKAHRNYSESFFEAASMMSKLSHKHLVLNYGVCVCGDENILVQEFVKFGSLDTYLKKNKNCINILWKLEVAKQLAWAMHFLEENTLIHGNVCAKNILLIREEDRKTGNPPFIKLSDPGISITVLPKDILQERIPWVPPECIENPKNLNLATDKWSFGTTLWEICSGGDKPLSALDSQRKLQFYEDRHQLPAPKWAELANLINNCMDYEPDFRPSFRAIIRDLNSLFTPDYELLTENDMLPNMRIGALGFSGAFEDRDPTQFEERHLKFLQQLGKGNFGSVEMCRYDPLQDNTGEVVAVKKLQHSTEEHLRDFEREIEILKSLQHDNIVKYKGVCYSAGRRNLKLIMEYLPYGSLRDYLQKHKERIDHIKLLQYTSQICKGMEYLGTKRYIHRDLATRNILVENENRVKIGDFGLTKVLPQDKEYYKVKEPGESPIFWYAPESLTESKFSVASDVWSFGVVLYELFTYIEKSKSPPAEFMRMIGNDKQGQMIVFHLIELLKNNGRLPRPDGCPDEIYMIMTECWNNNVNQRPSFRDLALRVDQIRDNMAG

MERTK = MERTK (UniProt Q12866); experiment: as above
MERTK, sequence (Q12866 whole entry, looked up): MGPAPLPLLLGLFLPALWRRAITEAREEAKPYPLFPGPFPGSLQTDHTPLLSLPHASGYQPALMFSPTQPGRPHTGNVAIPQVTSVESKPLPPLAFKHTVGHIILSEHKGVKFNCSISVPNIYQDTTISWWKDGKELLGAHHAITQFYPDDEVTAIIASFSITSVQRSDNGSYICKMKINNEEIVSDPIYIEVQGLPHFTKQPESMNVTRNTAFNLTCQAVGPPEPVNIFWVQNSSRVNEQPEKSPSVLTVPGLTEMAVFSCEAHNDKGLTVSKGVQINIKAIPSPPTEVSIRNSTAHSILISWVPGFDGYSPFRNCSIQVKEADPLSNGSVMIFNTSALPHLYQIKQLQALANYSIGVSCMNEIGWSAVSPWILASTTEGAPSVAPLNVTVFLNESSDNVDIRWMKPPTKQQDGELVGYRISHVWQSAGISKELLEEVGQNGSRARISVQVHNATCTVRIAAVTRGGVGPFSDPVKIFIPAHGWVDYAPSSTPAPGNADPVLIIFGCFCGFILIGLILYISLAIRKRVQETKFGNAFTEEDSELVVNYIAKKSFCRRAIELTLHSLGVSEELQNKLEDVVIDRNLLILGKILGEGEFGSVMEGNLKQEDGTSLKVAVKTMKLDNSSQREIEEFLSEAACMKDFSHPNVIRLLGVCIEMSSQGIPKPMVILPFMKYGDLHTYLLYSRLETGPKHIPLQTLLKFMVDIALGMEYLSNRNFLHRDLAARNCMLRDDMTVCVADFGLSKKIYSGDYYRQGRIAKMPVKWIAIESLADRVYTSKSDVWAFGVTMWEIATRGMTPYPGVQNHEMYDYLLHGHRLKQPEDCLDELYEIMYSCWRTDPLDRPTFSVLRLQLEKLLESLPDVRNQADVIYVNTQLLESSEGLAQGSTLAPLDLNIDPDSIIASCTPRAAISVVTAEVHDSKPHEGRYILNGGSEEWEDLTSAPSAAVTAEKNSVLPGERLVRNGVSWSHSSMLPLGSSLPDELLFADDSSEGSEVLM

c-Abl (mouse) = experiment: as above
c-Src = experiment: as above
Grb2 SH2 = Grb2 SH2 (UniProt P62993); experiment: SH2 binding enrichment of the phosphorylated peptide, bacterial display (enrichment ratio); higher = better substrate or ligand; peptides without Tyr show the background
Grb2 SH2, sequence (P62993 whole entry, looked up): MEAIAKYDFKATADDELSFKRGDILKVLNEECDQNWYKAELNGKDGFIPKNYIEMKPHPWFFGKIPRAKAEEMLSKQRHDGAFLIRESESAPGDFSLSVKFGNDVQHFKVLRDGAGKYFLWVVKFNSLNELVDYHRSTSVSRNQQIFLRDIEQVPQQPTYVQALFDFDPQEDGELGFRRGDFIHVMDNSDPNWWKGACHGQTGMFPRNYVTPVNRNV

SHP2-C SH2 = experiment: as above
c-Src SH2 = experiment: as above
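For SH2 binding enrichment of the phosphorylated peptide, bacterial display in this document: peptide library displayed on the E. coli surface as eCPX fusions, selected cells deep-sequenced, score is each peptide's frequency after selection divided by its frequency in the input.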
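For phosphorylation enrichment, bacterial display in this document: 11-residue human phosphosite peptides and single-mutation variants displayed on the E. coli surface, counted by deep sequencing, each peptide's frequency after selection divided by its frequency in the unselected input library; frequency after pTyr selection over input frequency; kinase dosed for 20-30% of maximal phosphorylation in three min.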

Fes, sequence (P07332 whole entry, looked up): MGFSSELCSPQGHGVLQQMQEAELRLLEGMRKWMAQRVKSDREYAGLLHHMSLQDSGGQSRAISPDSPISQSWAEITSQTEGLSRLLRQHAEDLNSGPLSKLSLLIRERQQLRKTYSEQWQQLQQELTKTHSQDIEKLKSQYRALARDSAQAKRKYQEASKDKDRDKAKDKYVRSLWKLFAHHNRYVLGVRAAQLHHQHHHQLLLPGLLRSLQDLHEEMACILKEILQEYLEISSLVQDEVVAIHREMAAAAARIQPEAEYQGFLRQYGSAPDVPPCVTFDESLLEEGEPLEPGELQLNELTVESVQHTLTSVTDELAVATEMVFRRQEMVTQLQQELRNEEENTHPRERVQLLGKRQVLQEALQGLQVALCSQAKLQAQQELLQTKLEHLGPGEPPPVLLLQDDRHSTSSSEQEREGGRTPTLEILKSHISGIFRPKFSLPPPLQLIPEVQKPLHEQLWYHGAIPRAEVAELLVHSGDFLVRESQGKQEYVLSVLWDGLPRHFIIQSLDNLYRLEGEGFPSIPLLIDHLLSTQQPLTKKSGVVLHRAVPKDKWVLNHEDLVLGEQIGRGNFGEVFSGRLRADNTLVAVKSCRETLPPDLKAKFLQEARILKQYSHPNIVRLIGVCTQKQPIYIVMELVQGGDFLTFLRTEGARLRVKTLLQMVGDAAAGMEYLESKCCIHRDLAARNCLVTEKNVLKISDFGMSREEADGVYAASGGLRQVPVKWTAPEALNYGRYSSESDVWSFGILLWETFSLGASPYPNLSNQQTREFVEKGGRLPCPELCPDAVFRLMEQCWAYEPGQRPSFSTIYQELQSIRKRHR
FGFR1, sequence (P11362 whole entry, looked up): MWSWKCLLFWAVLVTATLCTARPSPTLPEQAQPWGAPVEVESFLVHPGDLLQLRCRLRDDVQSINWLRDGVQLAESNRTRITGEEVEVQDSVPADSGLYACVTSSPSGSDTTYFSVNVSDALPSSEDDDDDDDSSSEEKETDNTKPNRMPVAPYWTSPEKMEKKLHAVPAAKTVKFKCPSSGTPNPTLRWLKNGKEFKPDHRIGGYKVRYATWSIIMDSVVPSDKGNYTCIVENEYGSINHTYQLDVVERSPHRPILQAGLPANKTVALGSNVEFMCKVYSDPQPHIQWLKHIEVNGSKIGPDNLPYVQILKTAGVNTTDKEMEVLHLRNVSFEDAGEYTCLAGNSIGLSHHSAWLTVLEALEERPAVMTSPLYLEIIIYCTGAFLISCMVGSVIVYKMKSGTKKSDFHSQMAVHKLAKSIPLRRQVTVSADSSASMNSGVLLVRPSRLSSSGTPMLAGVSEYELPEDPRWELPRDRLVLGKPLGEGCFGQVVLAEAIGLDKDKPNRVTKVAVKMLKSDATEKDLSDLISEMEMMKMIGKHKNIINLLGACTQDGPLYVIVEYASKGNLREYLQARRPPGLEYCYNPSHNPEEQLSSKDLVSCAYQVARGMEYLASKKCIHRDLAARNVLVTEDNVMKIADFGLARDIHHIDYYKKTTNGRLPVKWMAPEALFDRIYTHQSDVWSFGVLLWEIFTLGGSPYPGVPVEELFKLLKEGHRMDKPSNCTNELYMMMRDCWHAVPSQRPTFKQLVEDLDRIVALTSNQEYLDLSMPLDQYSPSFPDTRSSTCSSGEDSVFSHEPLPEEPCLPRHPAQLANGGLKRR

Sequence	phosphorylation enrichment (AncSZ)	phosphorylation enrichment (EPHB1)	phosphorylation enrichment (EPHB2)	phosphorylation enrichment (FGFR1)	phosphorylation enrichment (FGFR3)	phosphorylation enrichment (Fer (mouse))	phosphorylation enrichment (Fes)	phosphorylation enrichment (Fyn)	phosphorylation enrichment (Hck)	phosphorylation enrichment (Jak2)	phosphorylation enrichment (MERTK)	phosphorylation enrichment (c-Abl (mouse))	phosphorylation enrichment (c-Src)	SH2 binding enrichment (Grb2 SH2)	SH2 binding enrichment (SHP2-C SH2)	SH2 binding enrichment (c-Src SH2)
NVFGNYNQQPS [HNRNPA2B1_Y306_D302V]	0.492	0.468	0.375	0.356	0.471	0.315	0.713	0.401	0.484	0.687	0.375	0.674	0.384	0.822	0.682	0.584
PARLEYFENEK [IRS1_Y46_YF]	1.35	0.714	0.777	1.03	0.957	0.661	1.61	0.471	0.709	2	0.784	0.999	0.684	0.834	0.817	0.647
PCLLRYLQLDF [ASB10_Y457_R453C]	1.5	0.833	0.538	1.18	1.14	0.968	1.72	0.497	0.783	1.51	0.733	1.12	0.502	1.12	1.26	1.26
PDDPSYSLVDD [PSTPIP2_Y323_N322S]	1.6	0.999	0.8	0.899	1.08	0.728	1.53	0.885	0.679	1.75	0.563	1.03	0.91	1.29	0.724	3.29
PDSVDYRKKGF [CTSK_Y121_YF]	0.524	0.468	0.646	0.402	0.88	0.521	0.536	0.32	0.55	0.49	0.368	0.391	0.366	0.755	0.638	0.625
PECEWYKNGVK [TTN_Y2112]	1.55	0.759	1.05	0.821	1.19	0.719	1.96	0.692	0.73	1.32	0.532	1.31	0.555	0.811	0.472	0.39
PESCLYKESWI [IQGAP2_Y630_L635I]	1.18	0.931	1.2	1.25	1.17	1.26	1.97	0.493	0.872	1.54	0.6	1.48	0.825	0.827	0.315	0.532
PHQTIYSALMI [FGF23_Y70]	1.26	5.93	4.45	1.88	1.61	20.3	3.94	12.7	12.8	1.7	13.1	20.6	10.4	0.68	0.598	0.495
PHRSIYFSSPK [MPG_Y75_Y71H]	0.498	0.674	0.61	0.803	0.927	0.663	0.859	0.982	1.48	0.584	0.687	0.862	0.786	1.01	0.609	0.46
PIPAAYNKFDQ [CDC73_Y290_R292K_YF]	1.54	0.687	1.39	0.57	0.925	0.798	0.864	0.745	0.661	0.653	0.415	0.684	0.611	0.946	0.86	0.509
PKGTGYIKTES [STAT1_Y701_L706S]	0.588	0.504	0.449	0.604	0.487	0.392	1.2	0.466	0.525	1.22	0.553	0.868	0.601	0.997	0.427	0.425
PLAVPYLDKPP [JMJD7_Y31]	0.825	0.355	0.608	0.504	0.769	0.614	1.06	0.46	0.711	0.742	0.614	0.658	0.549	0.867	1.1	0.398
PLDAEYFTLQI [TP53_Y327_G325A]	2.57	0.876	0.826	8.68	6.59	0.883	1.63	2.47	1.57	3.1	0.603	1.29	4.2	0.779	0.738	0.43
PLDGEYFILQI [TP53_Y327_T329I]	4.19	2.02	2.04	14.5	12.9	0.978	2	3.7	1.88	2.88	1.22	1.24	2.88	0.651	0.794	0.521
PLDGEYFTLPI [TP53_Y327_Q331P]	12.6	16.6	19.1	36.5	32.2	1.66	2.87	9.28	15.7	12.1	3.81	25	9.02	0.717	0.61	0.478
PLFKICVAELI [MRPL28_Y230_Y230C]	1.2	1.06	0.888	0.499	1.14	0.707	1.57	0.73	0.692	1.31	0.469	0.718	0.394	0.926	0.829	0.496
PLGKDYRKVEG [MAP1A_Y1909_A1912V]	1.27	0.561	0.768	0.518	0.685	0.456	0.883	0.74	0.513	1.52	0.741	1.66	1.53	0.556	0.706	0.385

Sequence	phosphorylation enrichment (AncSZ)	phosphorylation enrichment (EPHB1)	phosphorylation enrichment (EPHB2)	phosphorylation enrichment (FGFR1)	phosphorylation enrichment (FGFR3)	phosphorylation enrichment (Fer (mouse))	phosphorylation enrichment (Fes)	phosphorylation enrichment (Fyn)	phosphorylation enrichment (Hck)	phosphorylation enrichment (Jak2)	phosphorylation enrichment (MERTK)	phosphorylation enrichment (c-Abl (mouse))	phosphorylation enrichment (c-Src)	SH2 binding enrichment (Grb2 SH2)	SH2 binding enrichment (SHP2-C SH2)	SH2 binding enrichment (c-Src SH2)
PMFHSYVSLPF [PLXNA2_Y293_K289M]	1.4	1.98	1.86	3.85	2.26	0.789	1.56	1.08	3.34	2.01	1.2	0.712	0.751	0.745	1.4	3.37
PPAPRYHHSAV [LZTR1_Y119]	0.655	0.432	0.44	0.38	0.79	0.587	1.26	0.457	0.717	0.781	0.351	0.677	0.384	1.31	1.1	1.07
PPGRSYSPCDY [TNS1_Y793_Y796C]	1.19	0.512	0.83	0.73	0.799	0.602	1.16	0.922	0.586	1.02	0.638	0.832	0.581	1	0.772	1.26
PPGRSYSPYDY [TNS1_Y793]	1.44	1.12	1.07	0.863	0.855	1.11	1.38	2.82	1.65	1.07	0.653	0.664	3.42	0.502	1.52	3.08
PPLMLYNPTTY [EGFR_Y270]	0.518	1	0.718	0.43	0.498	0.613	10.3	0.633	1.01	0.625	0.472	0.541	0.645	1.45	1.28	0.74
PPTYRYERGSR [INPPL1_Y663]	0.509	0.302	0.442	0.56	0.419	0.22	0.616	0.449	0.533	0.286	0.465	0.61	0.39	0.613	0.363	0.426
PQGVGYPPQQQ [EP300_Y2219]	0.962	0.44	0.619	0.897	0.871	0.46	1.17	0.573	0.612	0.915	0.619	0.655	0.579	0.92	0.685	0.428
PQGVGYPQQQQ [EP300_Y2219_P2221Q]	0.87	0.591	0.435	0.448	0.604	0.441	0.921	0.608	0.546	0.713	0.4	0.599	0.475	0.588	0.835	0.249
PQQLWYTHKKK [UBTF_Y207_E210K]	1.14	0.774	1.14	0.888	0.589	0.598	1.14	0.52	0.821	1.07	1.22	0.981	0.7	0.592	0.702	0.515
PRLMLYNPTTY [EGFR_Y270_P266R]	0.922	0.889	0.905	0.731	0.776	0.7	1.21	0.601	0.692	1.08	0.649	0.812	0.526	1.16	1.14	0.686
PSSNLYFRWLT [CNGA3_Y168_YF]	1.7	0.688	0.959	1.52	1.33	1.02	1.2	0.886	1.38	3.54	4.73	0.822	1.11	1.41	1.15	0.876
PSSRDYKHNIK [PIGN_Y227]	0.442	0.321	0.47	0.448	0.587	0.569	0.572	0.456	0.474	0.481	0.463	0.471	0.417	0.895	0.774	0.495
PTTKTYFPHFY [HBA1_Y43_D48Y]	0.782	0.46	0.735	0.628	1.14	0.825	0.873	0.884	0.535	0.974	0.508	0.785	0.56	0.771	1.25	0.73
PVFIKYLPEWT [PSEN1_Y240_L235P]	1.45	0.64	0.715	0.515	1.04	0.759	1.68	0.447	0.519	1.62	0.475	1.07	0.626	1.28	0.884	0.606
PVQAASQKVVA [HBB_Y131_Y131S]	0.482	0.592	0.414	0.477	1.55	0.414	1.36	0.445	0.426	0.398	0.396	0.571	0.469	0.623	0.712	0.432
PVVKLYATDGR [RP1_Y199]	0.781	0.745	0.78	0.648	0.802	0.575	1.01	0.601	0.554	0.781	0.451	0.781	0.576	0.876	0.558	0.569

From the supplement of paper PMC10065799, “High-throughput profiling of sequence recognition by tyrosine kinases and SH2 domains using bacterial peptide display” (eLife, 2023)
